Results reported in the DeepSol protein solubility set.

Assay: soluble on expression in E. coli; label from the status in PepcDB or PDB records

Sequence	soluble on expression in E. coli
MGSDKIHHHHHHCKPSKDETSSLKTADRKPLVTNLGNNVILPRYVALNTSVNAFDSEVQIFTAAPTIENLTSLRIKFYQAYIDWEYVACFEFGPAAASTVNLGTKTVNAFPADTAVIKNKIVQGVTAIPPTNSAMYSGFPAIDYLLFAKSLTAQQIVDSFTVSSTAVKRCNYLKTVSSDLKARINTTYTNWTASGANFISLYTNSTGIDLGSATSQTVNMLVADVENIKNFKLGIPLNIIQNVVVGDGSTVNPFKCEGYHSDSSLVLAKASIESLRKLYLGIGADGTDGEGFDNYLEAIDRSGLNVQIKNQIALLQAKLDAIPAPISIAIKNPAGKQAVNEAYTETLHLLVLLKVDMASAIGVMISYGDTDGD	not soluble
MAHHHHHHMKKNLIRWGEKVTDELTKVTLTDKPLGTDFDQGIENLQIKFKELFKIWKNASNKLINDFTSKLDTTSYLSSLQNFVDNEYEFYDSASSVCDEETNS	not soluble
MGDNENGDNLNNHQDSGSGSHHDAAPQQQQNNMSHQQQPQQQQHNEHNKQQQQQRDDVCRDFLKNICNRGSRCKFYHPSEAPPISDHDYNFCIDYQNRGCQRDNCRFVHAPRDEVERYKTTRELTLILARAIAAVGHGDTIGGIPICKEFQTGRCARGVNRCRYWHVNVDLERDRRNRGLPPSNDFGPGGGGGGMGGGGGSGGSGGGSGRFPPPPPPYGGGGRRRPYDDYDSDPIKRGRYGSDDRLMELEKRNAELSKEVDSLRRELQREHDRYEDLYALFRQQSGGAPAPPKAAAAASAVNDYYGTWGQKAPGW	soluble
MFQQLSARLQEAIGRLRGRGRITEEDLKATLREIRRALMDADVNLEVARDFVERVREEALGKQVLESLTPAEVILATVYEALKEALGGEARLPVLKDRNLWFLVGLQGSGKTTTAAKLALYYKGKGRRPLLVAADTQRPAAREQLRLLGEKVGVPVLEVMDGESPESIRRRVEEKARLEARDLILVDTAGRLQIDEPLMGELARLKEVLGPDEVLLVLDAMTGQEALSVARAFDEKVGVTGLVLTKLDGDARGGAALSARHVTGKPIYFAGVSEKPEGLEPFYPERLAGRILGMGDIESILEKVKGLEEYDKIQKKMEDVMEGKGKLTLRDVYAQIIALRKMGPLSKVLQHIPGLGIMLPTPSEDQLKIGEEKIRRWLAALNSMTYKELENPNIIDKSRMRRIAEGSGLEVEEVRELLEWYNNMNRLLKMVK	soluble
MRISGVTLFRVSSQLRNVVNGQWTTTHYTVKDRSTDPRWKDVDLARESDVYDVVIVGGGPSGLSAAIRLRQLAEKAQKELRVCVVEKASVIGGHTLSGAVIETRALDELIPNWKELGAPVYQQVTSESIAILTESGRIPVPVLPGVPLANHGNYIVRLGKVVQWLGEQAEAAGVEVWPEIAASEVLYNEDGSVKGIATSDVGIGKDGAPKDGFARGMEFHAKCTIFAEGCRGHLSKQVLDKFDLRTHAMTYGIGLKELWEIDPAKHRPGYVEHTMGWPLNVDQYGGSFLYHIEDQGQPLVSVGFVVALDYANPNLNPYKEFQKYKTHPSISKQLEGGKRIGYGARALNEGGFQSIPKLHFPGGCLVGCSAGFLNVAKLKGTHNAMKSGMVAAESIFEDIQQKGEDVQTIDPATYDKNIRDTYVVKELKATRNIRPSFNTSLGYIGGLIYSGIFYVFGRGIEPWTLGHGKKDNEKLIPVKDAKEIDYPKPDGKLTFDLLTSVSLTGTNHTEDQPAHLTLKNDQVPLDVNLAVYGGPEARFCPAGVYEFVPSEADESKKRLQINAQNCIHCKTCDIKDPQQNINWVTPEGGGGPKYEGM	not soluble
MGHHHHHHGGHMSLQDFKKLPTVLTAEELIDKIFRRAARVEGRNPKEKALNKLATISNVSRDYFGKIIGAHPSYENLPDFYREMVDVVVGIRQLKKSLVALKWADGMIQKVVSRAVREVKGGKNPSAVVKSAYGRVASIIEQIDDELRFLNDAKNRMREIPILQDLPTIVVAGYPNVGKSSLVARISTVKPEVASYPFTTKKINLGFAEFAGKRVQIIDTPGLLDRPLSKRNRIERRAVLALKHLADIILFVIDPTETCGYSLEKQLSLLEEIKGYFAKPTVEVYSKADMHDRRDRQAYSAVTGEGIDELIKEIEKMVKIHSQTSTVIAPSGQTSTQEQHSEGGS	soluble
MNVTEQNSHQILIQKLLVSIHYLTLFRDELKLVERTPSILGGEFPAHLVQSELGDIVAAIDTLDMQQRLIESTFWYEESAFKLMNKTLDIVDNWIKGVDHLIDLCQSKEVFQIIIGDKRIRVFGVLSDVFSSLKVSALSLKEAPIPDVLYEHIQRVNLEEEAFIKYYQSPKVPTGEFE	not soluble
MTEEFEIAGISTGAWWSSPTNTAAVFSGYSLPCSTEISPDVTNFGWQNFDNKINDHNDGCMNMHNSFFEGLLIDPNDQLLPDPWSKSTIPNAKSELLENFPFLDNMFLVDSEAESLLDHEIRNHKSSKEQITQDYKNLTSKAQLEENSDEYSPRLLKRPRLETLSPLPSFKVRKEKLGDRITALQQLVSPFGKTDTASVLNEAVEYIKFLQEQVTVLSNPEQNTIGSVQQQQCSNKKSINTQGEVEEDECSPRRYVDLSSRGLCLMPISASYPVAAAAASAAEMNVHLVSGIFHSL	soluble
MTTTSAFMLNVRLDNVAVVAIDVPGEKVNTLKAEFATQVRAILKQIRENKALQGVVFISAKADNFIAGADINMIGHCQNAQEAETLARQGQQLMAEIQALPVPVIAAIHGACLGGGLEMALACHRRICTDDVKTVLGLPEVQLGLLPGSGGTQRLPRLVGVSTALDMILTGKQLRARQALKAGLVDDVVPQTILLEAAVELAKKERLAQRTLPVRERILAGPLGRALLFRLVRKKTAQKTQGNYPATERIIDVIETGLAQGSSSGYDAEARAFGELAMTPQSQALRAIFFASTEVKKDPGSDAPPGPLNSVGILGGGLMGGGIAWVTACKGGLPVRIKDINTQGINHALKYSWDLLETKVRRRHIKASERDKQLALISGSTDYRGFSHRDLVIEAVFEDLPLKQQMVAEVEQNCAAHTIFASNTSSLPIGDIAANAARPEQVIGLHFFSPVEKMPLVEVIPHASTSAQTIATTVKLAKKQGKTPIVVSDKAGFYVNRILAPYINEAIRMLTEGERVEHIDAALVKFGFPVGPIQLLDEVGIDTGTKIIPVLEAAYGERFSAPANVVASILNDDRKGRKNGRGFYLYGEKGRKSKKQVDPAIYKLIGVQGQSRLSAQQVAERCVMLMLNEAARCFDEKVIRSARDGDIGAVFGIGFPPFLGGPFRYMDALGPGEMVATLQRLAALYGPRYAPCEQLVRMAERREHFWTNGETDQGN	not soluble
MSLKIAIVGSGNGAVTAAVDMVDKGHDVRLYCRNESISKFDVALEKGGFDFNNEGEEKFIEFTDISDDMEYVLDGADIVQVIIPSSFIEYYAKVMSKFVTNDHLIFFNIAASMGSIRFMNVLEDRHIDVHPHFAEANTLTYGTRVDFNNAKVDLSLNVRRVFFSTFDRSELNESYEKVSKIYDYLVKEESLLKTNLENGNPEVHPGPTLLNVGRIDYSEEFSLYKEGITKHTVRLLHAIEIERLNLGRKLGFELSTAKESRIQRGYLERKDEDEPLNRLFNTSPVFSQIPGPNHVENRYLTEDIAYGLVLWSSLGRVIDVPTPNIDAVIMIASTILERDFFEEGLTIEELGLDKLGLEEGHHHHHH	soluble
MRRVGESSTGDRKALRSGLKRQGSADEDDIESIFSGIGSARINEPKAKKDDDESNEEKYFSVGKDGRRYHEGLPVYTTEELHLGDGGGDTEDCPIYCDCCL	not soluble
MGSDKIHHHHHHMSNTPIELKGSSFTLSVVHLHEAEPKVIHQALEDKIAQAPAFLKHAPVVLNVSALEDPVNWSAMHKAVSATGLRVIGVSGCKDAQLKAEIEKMGLPILTEGKEKAPRPAPTPQAPAQNTTPVTKTRLIDTPVRSGQRIYAPQCDLIVTSHVSAGAELIADGNIHVYGMMRGRALAGASGDRETQIFCTNLMAELVSIAGEYWLSDQIPAEFYGKAARLQLVENALTVQPLN	not soluble
MGSDKIHHHHHHMQILTVQMNIAGEWRDVAVVGFYAPEKGTGGPCVLNYDIEHVTSYFHQFAQTAVSVSLPVDNIPLRSPHWHRFLEDIMPAGSSRDYWVKRLGLQDMPNLERDFQLLKYGTIAPIGNLRIKESVPEKAKKSLPVTFSIADVSELQIDFIEYAQSRGAAAGGASGAGGAAPKLLVRLNEQQGVWIDTFQDDPRNLDQPYLVKFPRGKTTLDSDILRAEYHFYHELTQLGFETISVESMKLIEVERGPSLWLPRFDYGVEAGAMVSYGMESVYAILGEPTAKPLLHADVIRRLLAEFNKKENYGNTRTPLDVEAGLEGKSGIEAFVVEWVRRDLLNIAFGNSDNHGRNTSFIKHGNRVQLAPIYDFAPMKADYEMITRTFTWGEGMELGGVYNFPAIAEHLSDLLSPNDLMSALNETAVRLLGLELRLRQRGVPESILAHSGIGFATLEARMQQWGLL	not soluble
MKKYEIIFKKLEEDILKGHYQMGDYLPPEMELSQTYASSRDTVRKALQLLTKAGFIKTVQGRGSQIIKRERINFPVSQLTSYQELVKQLQMNVKTNVIAIDKLIVDEKLTKLTGFENKGLVWRITRQRVIDGVASILDTDYLDKALIPHMTREIAEHSIYDYLENQLKLDIAYAQKIITIDQVSQKDKILLDLDSENHVVSVKSKVYLSNQQQFQFTESRHKLEKFRFVDFARRHRD	not soluble
MAREFKRSDRVAQEIQKEIAVILQREVKDPRIGMVTVSDVEVSSDLSYAKIFVTFLFDHDEMAIEQGMKGLEKASPYIRSLLGKAMRLRIVPEIRFIYDQSLVEGMRMSNLVTNVVREDEKKHVEESNLEHHHHHH	soluble
MHHHHHHSSRENLYFQGTLPLWIGKPGDKPPPLCGAIPASGDYVARPGDKVAARVKAVDGDEQWILAEVVSYSHATNKYEVDDIDEEGKERHTLSRRRVIPLPQWKANPETDPEALFQKEQLVLALYPQTTCFYRALIHAPPQRPQDDYSVLFEDTSYADGYSPPLNVAQRYVVACKEPK	soluble
IRNVGITFETRPDWAREEHVDEFLRLGGTKVEIGVQSVYDFVLSRMQRGHGVAEIVRANRVLRDSAFKVGFHMMPHLPGADSELDLRGFKKLFDDQRFRPDYLKIYPTLVTEGTPLYRMWKSGEYQALSDEEAAELVADIKAVLPKWVRLQRIQRDIPAHQIFAGVR	not soluble
MSLAVKILSVDDELDLEVLLTQYFRRQIRKGEYEFAFAHNGLEALQKLLETPDFDIILSDINMPEMDGLTLLAKVNELKNPAMKCIMVSAYGDMDNIRSAMNKGAFDFATKPIDLDDLSRTIEKAIEQVRYIRESQQEHNQLESIKNDLAIAGEIQQTILPRSFPPFPELTEVVNIYASMTPAKDVGGDFYDFFQIDDERIGLVIADVSGKGVPASLFMAVSRTLLRATALRGVSSAECLTYANKLLCKESLDSMFVTVFYGIYHYKTGMMDYTNAGHNPPYLLRGGRTVECLPVASNFVVGVFDDIEFESNTLTFGIGDTLLLYTDGVTEAFNDKREQFSESNLQDILASMHESSSAKEVVTSVLQSVKTFSGDYPQSDDITLLSLQRIKEGHHHHHH	soluble
MLSEQKEIAMQVSGMTCAACAARIEKGLKRMPGVTDANVNLATETVNVIYDPAETGTAAIQEKIEKLGYHVVTEKAEFDIEGMTCAACANRIEKRLNKIEGVANAPVNFALETVTVEYNPKEASVSDLKEAVDKLGYKLKLKGEQDSIEGR	soluble
MSLTIIKQVELHEFDFKAKNLGNLTGAESVGAFGYLKGSFSKIKKFAVVIITDDGVRGEYVTHWCASDATYAQSSILAPKLLGRNAEEREGIYDDFKRELRQFDHMGHGPIDIALWDWAGKKLDCSVNFLLGGFKKKLPAYASTYHGDRNGGLDSKEAFSDFAEYCYDLGYKAFKIHGWNDGNAKEEAENVLHVAKKVGHKMTLMLDPACELRTFADALYVGKACDEADYFWLEDPYRDSGVSAFAHKKLRNMIKTPILQTEHIRGLEPKADFLIAGGTDFLRMDPEYDMGITGGMKIAHLAESFGVDVEIHACGPAHRHMMSAIRNTNFYEVALLGPDCPNAIPPVYLCGYSDMIDCIDKNGFVEVPNGVGLGVKYDWEFISKNTTNKKIFSLEGHHHHHH	soluble
